Experimental findings from patent publication US12427210B2, “Compounds comprising a fibroblast activation protein ligand and use thereof” (priority 2019, dated 2025) are described below.

For assay [1], the target named is T1, DPP3 (Homo sapiens (Human)) (UniProt Q9NY33).
T1 sequence: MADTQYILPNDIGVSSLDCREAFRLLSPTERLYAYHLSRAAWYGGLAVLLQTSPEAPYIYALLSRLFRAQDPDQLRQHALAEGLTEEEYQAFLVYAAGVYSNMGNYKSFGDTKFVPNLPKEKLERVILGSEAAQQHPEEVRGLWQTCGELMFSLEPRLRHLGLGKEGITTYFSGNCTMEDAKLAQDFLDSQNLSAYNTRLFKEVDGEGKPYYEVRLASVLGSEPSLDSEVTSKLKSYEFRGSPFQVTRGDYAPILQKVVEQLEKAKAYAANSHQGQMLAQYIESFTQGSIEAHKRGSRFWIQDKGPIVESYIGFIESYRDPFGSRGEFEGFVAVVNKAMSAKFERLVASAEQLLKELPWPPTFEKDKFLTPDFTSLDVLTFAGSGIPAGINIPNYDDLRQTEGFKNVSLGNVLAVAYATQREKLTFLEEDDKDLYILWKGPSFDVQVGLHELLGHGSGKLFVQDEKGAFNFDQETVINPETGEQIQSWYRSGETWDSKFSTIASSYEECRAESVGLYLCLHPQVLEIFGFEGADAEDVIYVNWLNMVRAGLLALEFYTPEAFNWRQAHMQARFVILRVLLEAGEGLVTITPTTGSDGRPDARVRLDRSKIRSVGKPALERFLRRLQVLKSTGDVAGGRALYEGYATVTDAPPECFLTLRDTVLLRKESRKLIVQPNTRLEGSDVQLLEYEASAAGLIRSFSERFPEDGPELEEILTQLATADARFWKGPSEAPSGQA

Assay [2] has as its target Recombinant human FAP (R&D systems, #3715-SE) (human).
Assay [3] addresses Recombinant human DPP4 (R&D systems #9168-SE) (human) (UniProt P27487).
The target in assay [4] is recombinant human PREP (R&D systems, #4308-SE) (human) (UniProt P48147).
recombinant human PREP (R&D systems, #4308-SE) (human), sequence (P48147 whole entry): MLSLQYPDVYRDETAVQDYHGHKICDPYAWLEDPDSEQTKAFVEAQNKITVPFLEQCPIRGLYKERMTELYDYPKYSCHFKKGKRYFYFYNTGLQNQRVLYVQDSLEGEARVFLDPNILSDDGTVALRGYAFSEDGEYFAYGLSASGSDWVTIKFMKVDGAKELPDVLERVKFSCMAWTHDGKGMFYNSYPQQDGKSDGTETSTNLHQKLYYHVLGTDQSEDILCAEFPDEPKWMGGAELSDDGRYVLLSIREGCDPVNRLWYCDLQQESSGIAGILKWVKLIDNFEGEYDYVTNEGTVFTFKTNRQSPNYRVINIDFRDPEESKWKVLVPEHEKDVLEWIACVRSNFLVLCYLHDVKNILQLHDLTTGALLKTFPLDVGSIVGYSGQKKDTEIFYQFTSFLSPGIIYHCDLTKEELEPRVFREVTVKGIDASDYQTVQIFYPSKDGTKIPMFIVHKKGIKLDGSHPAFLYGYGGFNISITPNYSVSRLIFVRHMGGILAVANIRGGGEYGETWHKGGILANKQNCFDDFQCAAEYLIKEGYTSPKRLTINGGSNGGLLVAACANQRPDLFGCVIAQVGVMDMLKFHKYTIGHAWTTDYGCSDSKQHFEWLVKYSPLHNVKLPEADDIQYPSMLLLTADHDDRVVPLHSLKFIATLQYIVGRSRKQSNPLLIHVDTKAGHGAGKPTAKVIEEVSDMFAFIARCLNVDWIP

Recombinant human FAP (R&D systems, #3715-SE) (human), sequence (chain, as listed by the source limits assumed): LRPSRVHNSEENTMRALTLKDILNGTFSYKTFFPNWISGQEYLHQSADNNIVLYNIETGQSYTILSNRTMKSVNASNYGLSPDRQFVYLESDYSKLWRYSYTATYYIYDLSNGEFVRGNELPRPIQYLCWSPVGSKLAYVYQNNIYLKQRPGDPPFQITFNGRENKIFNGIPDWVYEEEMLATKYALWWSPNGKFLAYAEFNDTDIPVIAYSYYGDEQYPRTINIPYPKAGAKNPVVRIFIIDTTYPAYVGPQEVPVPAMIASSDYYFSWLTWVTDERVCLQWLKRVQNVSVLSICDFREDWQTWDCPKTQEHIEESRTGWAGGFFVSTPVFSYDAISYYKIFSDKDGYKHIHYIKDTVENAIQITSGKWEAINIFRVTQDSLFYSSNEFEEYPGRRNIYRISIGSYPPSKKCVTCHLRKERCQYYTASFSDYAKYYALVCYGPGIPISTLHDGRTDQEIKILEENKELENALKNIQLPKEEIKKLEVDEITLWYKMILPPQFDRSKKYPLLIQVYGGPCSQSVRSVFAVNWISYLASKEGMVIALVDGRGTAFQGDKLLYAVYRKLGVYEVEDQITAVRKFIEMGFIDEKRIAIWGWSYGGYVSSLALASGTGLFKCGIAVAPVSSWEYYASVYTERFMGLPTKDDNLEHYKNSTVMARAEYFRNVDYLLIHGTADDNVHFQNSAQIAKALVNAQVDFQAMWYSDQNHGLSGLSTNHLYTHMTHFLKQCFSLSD

“Hex-[Cys(tMeBn(DOTA-AET))-Pro-Pro-Thr-Gln-Phe-Cys]-OH (3BP-3554) (peptide)” yielded a Percentage inhibition (%) (% inhibition at 10 µM) in assay [1] of -1.
Turning to “Hex-[Cys(tMeBn(DOTA-PP))-Pro-Pro-Thr-Gln-Phe-Cys]-Asp-NH2 (3BP-3407) (peptide)”, the pIC50 Category (Activity) in assay [2] was over 8 pIC50. In addition, the pIC50 (DPP4) in assay [3] is under 6 pIC50. Besides, the pIC50 (PREP) in assay [4] is under 6 pIC50.
